T1: LANA DBD wild-type (KSHV (HHV-8), UniProt Q9DUN0 825-967)
T1 sequence: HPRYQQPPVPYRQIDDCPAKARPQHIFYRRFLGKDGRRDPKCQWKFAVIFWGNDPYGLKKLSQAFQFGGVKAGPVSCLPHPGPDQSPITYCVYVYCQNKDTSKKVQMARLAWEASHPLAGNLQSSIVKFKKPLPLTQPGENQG

B1: His-SMT3-BRD2 ET domain, short form (BRD2 633-714) (domain or fragment, UniProt P25440 633-714, looked up)
chain: SEEEEESRPMSYDEKRQLSLDINKLPGEKLGRVVHIIQAREPSLRDSNPEEIEIDFETLKPSTLRELERYVLSCLRKKPRKP
notes: also called BRD2S
B2: LBS1 21-mer FP probe (dsDNA)
DNA 1: AGCGGCCCCATGCCCGGGCGG
DNA 2: CCGCCCGGGCATGGGGCCGCT
B3: LANA C-terminal DNA binding domain (residues 1011-1153), wild type (domain or fragment)
chain: T1 sequence
notes: source: E. coli, purified (Ni-NTA, tag cleaved with ULP1, second Ni-NTA, Superdex 75)

Key:
[1] = molecular target: B3; experiment: pull-down; His-SMT3-BRD ET domain held on Ni-NTA resin; untagged LANADBD or EBNA1DBD added; 200 mM NaCl, 20 mM HEPES, 5 mM BME, pH 8.0; washed with 10 CV; eluted with 300 mM imidazole; conditions: both partners purified
LANA DBD wild-type = molecular target: T1, LANA DBD wild-type; experiment: fluorescence polarization; cooperative, Hill h > 1; Kd only in figure; FP: 200 mM NaCl, 20 mM HEPES, 1 mM DTT, (protein stock pH 7.4), 1 ug/mL BSA, 0.1 ug/mL poly(dA:dT), 0.001% Tween 20, 1 nM probe, room temperature 30 min; EMSA:; conditions: protein: recombinant; tags: His-SMT3 removed by ULP1; chain copies: 2; label: 5' 6-carboxyfluorescein; blunt
[2] = molecular target: T2, His-SMT3-BRD2 ET domain, long form (BRD2 633-801) (UniProt P25440 633-801); experiment: pull-down; His-SMT3-BRD ET domain held on Ni-NTA resin; untagged LANADBD or EBNA1DBD added; 200 mM NaCl, 20 mM HEPES, 5 mM BME, pH 8.0; washed with 10 CV; eluted with 300 mM imidazole; conditions: both partners purified
T2 construct: also called BRD2L

[3] = molecular target: the molecule itself; experiment: cross-linking; EGS, without DNA; 200 mM NaCl, 20 mM HEPES pH 7.4, 1 mM DTT, room temperature; samples boiled and run on gels
[4] = molecular target: the molecule itself; experiment: cross-linking; EGS, with a 1.2 molar excess of LBS1 DNA (unlabeled 21-mer); 200 mM NaCl, 20 mM HEPES pH 7.4, 1 mM DTT, room temperature; step: dimers and tetramers to higher oligomers

B1
binding result [1]: binds

B2
binding result (LANA DBD wild-type): binds

B3
binding result [2]: binds | stoichiometry N [3]: 4 | stoichiometry N [4]: ~10
